# Laboratory results from patent US20250270343A1 (Alector, published 2025).
# T1: full-length untagged human GPNMB expressed on cells (human, UniProt Q14956 23-572)
# T1 sequence: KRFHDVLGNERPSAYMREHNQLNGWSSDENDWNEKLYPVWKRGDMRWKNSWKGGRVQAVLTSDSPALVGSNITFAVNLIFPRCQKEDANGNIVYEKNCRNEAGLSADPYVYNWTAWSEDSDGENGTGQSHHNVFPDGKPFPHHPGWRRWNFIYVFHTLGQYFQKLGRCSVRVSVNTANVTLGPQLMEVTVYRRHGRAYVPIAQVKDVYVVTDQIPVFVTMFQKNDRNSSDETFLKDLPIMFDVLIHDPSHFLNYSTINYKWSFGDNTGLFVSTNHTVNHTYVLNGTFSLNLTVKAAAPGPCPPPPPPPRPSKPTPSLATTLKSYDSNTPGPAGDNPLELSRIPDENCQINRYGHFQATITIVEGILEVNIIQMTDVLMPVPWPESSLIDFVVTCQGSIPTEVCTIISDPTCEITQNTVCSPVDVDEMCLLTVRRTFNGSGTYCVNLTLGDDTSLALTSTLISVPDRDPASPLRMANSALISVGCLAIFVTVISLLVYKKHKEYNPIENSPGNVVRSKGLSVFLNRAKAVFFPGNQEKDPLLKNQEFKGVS
# T2: soluble human GPNMB (recombinant extracellular domain) (human, UniProt Q14956 23-498)
# T2 construct: also called huGPNMB; recombinant human GPNMB extracellular domain; not shown: C-terminal polyhistidine or Avi-His tag
# T2 sequence: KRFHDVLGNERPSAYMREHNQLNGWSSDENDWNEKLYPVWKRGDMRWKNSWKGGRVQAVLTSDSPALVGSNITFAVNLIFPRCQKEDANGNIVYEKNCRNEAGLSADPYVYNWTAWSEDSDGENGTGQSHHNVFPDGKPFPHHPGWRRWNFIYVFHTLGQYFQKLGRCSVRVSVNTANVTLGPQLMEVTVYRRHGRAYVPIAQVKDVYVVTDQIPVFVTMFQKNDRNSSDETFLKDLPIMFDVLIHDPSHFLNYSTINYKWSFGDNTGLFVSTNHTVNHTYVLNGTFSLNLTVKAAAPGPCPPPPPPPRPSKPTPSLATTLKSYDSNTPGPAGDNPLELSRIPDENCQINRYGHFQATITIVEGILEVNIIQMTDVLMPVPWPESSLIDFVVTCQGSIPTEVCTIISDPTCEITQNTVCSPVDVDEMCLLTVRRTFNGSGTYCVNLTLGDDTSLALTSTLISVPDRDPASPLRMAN
# T3: soluble cynomolgus GPNMB (recombinant extracellular domain) (cynomolgus, UniProt Q14956 23-499 (human entry), limits assumed)
# T3 chain: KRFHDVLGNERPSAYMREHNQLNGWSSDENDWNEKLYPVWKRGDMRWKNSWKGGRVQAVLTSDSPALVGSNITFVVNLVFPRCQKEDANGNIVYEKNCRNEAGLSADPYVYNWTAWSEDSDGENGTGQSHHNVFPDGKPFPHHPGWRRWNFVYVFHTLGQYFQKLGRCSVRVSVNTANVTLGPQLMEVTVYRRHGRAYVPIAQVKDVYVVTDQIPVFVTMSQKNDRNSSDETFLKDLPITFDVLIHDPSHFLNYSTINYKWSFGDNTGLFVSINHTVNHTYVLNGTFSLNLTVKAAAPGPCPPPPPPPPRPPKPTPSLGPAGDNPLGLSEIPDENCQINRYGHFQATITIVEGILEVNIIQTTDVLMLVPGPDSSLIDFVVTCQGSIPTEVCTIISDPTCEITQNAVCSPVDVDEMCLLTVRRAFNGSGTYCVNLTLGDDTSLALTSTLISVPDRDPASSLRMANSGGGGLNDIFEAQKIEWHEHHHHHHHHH
# Experiments:
# [1] = biological target: T1, full-length untagged human GPNMB …; assay: cell-based or functional assay
# [2] = biological target: T2, soluble human GPNMB (recombinant …); assay: SPR Biacore, IgG captured
# Experimental: (§1) Binding kinetics of the humanized and affinity matured anti-GPNMB antibodies described above were evaluated using the Biacore T200 (Cytiva). Briefly, IgGs were diluted to 10 μg/mL and captured using a Protein A/G (ThermioFisher, #21186) surface on a CM5 chip that was prepared by amine coupling according to the instrument manufacturer's recommendations. The captured antibodies were tested for their ability to bind human, cynomolgus monkey, and mouse GPNMB recombinant proteins as follows.
# (§2) Human, cynomolgus, and mouse GPNMB analytes were diluted in running buffer (HBS-EP+, Teknova, #8022, with 0.5 mg/ml BSA, MP Biomedicals LLC, #820451), to a concentration of 300 nM, then diluted 3-fold serially to 100 nM, 33 nM, and 11 nM. Each sample was injected for 2 minutes to allow association, followed by dissociation in buffer alone for 10 minutes. Each sample injection was followed by the regeneration of the chip with three 30-second injections of 10 mM glycine, pH 1.7. Fresh antibody was captured at the beginning of each cycle.
# (§3) Data were analyzed using Biacore evaluation software to generate kinetic constants. The equilibrium dissociation constants (KD) were calculated from the fitted association and dissociation rate constants (k-on and k-off) for each of the anti-GPNMB antibodies.
# [3] = biological target: T3, soluble cynomolgus GPNMB (recombinant …); assay: SPR Biacore, IgG captured
# Experimental: as §1, §2, §3
Binder,EC50 PDL1 [1],Fold Increase CD40 (max response at 1 µg/ml) [1],Fold Increase PDL1 (max response at 1 µg/ml) [1],Kd [2],koff [2],kon [2],Kd [3],koff [3],kon [3]
"anti-GPNMB antibody GPN-83 (antibody, V domains shown) VH: QVQLQESGPGLVKPSETLSLTCTVSGISITTGNYRWSWIRQPPGKGLEWIGYIDYSGTITYNPSLKSRVTITRDTSKNQFSLELSSVTAADTAVYYCARDLTHWYFDVWGQGTLVTVSS VL: DIVMTQSPDSLAVSLGERATINCKSSRSVDYYGIGFVNWYQQKPGQPPKLLIYATSIQGSGVPDRFSGSGSGTDFTLTISSLQAEDVAVYYCQQQKEVPPTFGGGTKVEIK",0.91 nM,2.1 fold,4.31 fold,7.5 nM,0.0016 s⁻¹,210000 M⁻¹ s⁻¹,8.1 nM,0.0014 s⁻¹,170000 M⁻¹ s⁻¹
"anti-GPNMB antibody GPN-86 (antibody, V domains shown) VH: QVQLQESGPGLVKPSETLSLTCTVSGISITTGNYRWSWIRQPPGKGLEWIGYIDYSGTITYNPSLKSRVTITRDTSKNQFSLELSSVTAADTAVYYCARDLTHWYFDVWGQGTLVTVSS VL: DIVMTQSPDSLAVSLGERATINCKSSRSVDYYGIGFLNWYQQKPGQPPKLLIYATSKQGSGVPDRFSGSGSGTDFTLTISSLQAEDVAVYYCQQQKEVPPTFGGGTKVEIK",1.37 nM,2.15 fold,4.57 fold,4.5 nM,0.0012 s⁻¹,260000 M⁻¹ s⁻¹,5.5 nM,0.0011 s⁻¹,190000 M⁻¹ s⁻¹
"anti-GPNMB antibody GPN-90 (antibody, V domains shown) VH: QVQLQESGPGLVKPSETLSLTCTVSGISITTGNYRWSWIRQPPGKGLEWIGYIDYSGTITYNPSLKQRVTITRDTSKNQFSLELSSVTAADTAVYYCARDLTHWYFDVWGQGTLVTVSS VL: DIVMTQSPDSLAVSLGERATINCKSSRSVDYYGIGFLNWYQQKPGQPPKLLIYATSHQGSGVPDRFSGSGSGTDFTLTISSLQAEDVAVYYCQQQKEVPPTFGGGTKVEIK",0.68 nM,2.12 fold,4.28 fold,2.8 nM,0.00053 s⁻¹,190000 M⁻¹ s⁻¹,3.2 nM,0.00051 s⁻¹,160000 M⁻¹ s⁻¹
"anti-GPNMB antibody GPN-88 (antibody, V domains shown) VH: QVQLQESGPGLVKPSETLSLTCTVSGISITTGNYRWSWIRQPPGKGLEWIGYIDYSGTITYNPSLKSRVTITRDTSKNQFSLELSSVTAADTAVYYCARDLTHWYFDVWGQGTLVTVSS VL: DIVMTQSPDSLAVSLGERATINCKSSRSVDYYGIGFLNWYQQKPGQPPKLLIYATSHQGSGVPDRFSGSGSGTDFTLTISSLQAEDVAVYYCQQQKHVPPTFGGGTKVEIK",–,–,–,3.1 nM,0.00063 s⁻¹,200000 M⁻¹ s⁻¹,3.7 nM,0.00061 s⁻¹,160000 M⁻¹ s⁻¹
"anti-GPNMB antibody GPN-89 (antibody, V domains shown) VH: QVQLQESGPGLVKPSETLSLTCTVSGISITTGNYRWSWIRQPPGKGLEWIGYIDYSGTITYNPSLKSRVTITRDTSKNQFSLELSSVTAADTAVYYCARDLTHWYYDVWGQGTLVTVSS VL: DIVMTQSPDSLAVSLGERATINCKSSRSVDYYGIGFLNWYQQKPGQPPKLLIYATSHQGSGVPDRFSGSGSGTDFTLTISSLQAEDVAVYYCQQQKEVPPTFGGGTKVEIK",1 nM,2.12 fold,4.22 fold,2.9 nM,0.00057 s⁻¹,200000 M⁻¹ s⁻¹,3.3 nM,0.00055 s⁻¹,170000 M⁻¹ s⁻¹

# Continued by falling Kd [2], values first:
EC50 PDL1 [1],Fold Increase CD40 (max response at 1 µg/ml) [1],Fold Increase PDL1 (max response at 1 µg/ml) [1],Kd [2],koff [2],kon [2],Kd [3],koff [3],kon [3],Binder
–,–,–,9.6 nM,0.0021 s⁻¹,220000 M⁻¹ s⁻¹,10.3 nM,0.0019 s⁻¹,180000 M⁻¹ s⁻¹,"anti-GPNMB antibody GPN-84 (antibody, V domains shown) VH: QVQLQESGPGLVKPSETLSLTCTVSGISITTGNYRWSWIRQPPGKGLEWIGYIDYSGTITYNPSLKSRVTITRDTSKNQFSLELSSVTAADTAVYYCARDLTHWYYDVWGQGTLVTVSS VL: DIVMTQSPDSLAVSLGERATINCKSSRSVDYYGIGFVNWYQQKPGQPPKLLIYATSIQGSGVPDRFSGSGSGTDFTLTISSLQAEDVAVYYCQQQKEVPPTFGGGTKVEIK"
1.36 nM,2.15 fold,4.4 fold,5.4 nM,0.0013 s⁻¹,250000 M⁻¹ s⁻¹,6.2 nM,0.0012 s⁻¹,190000 M⁻¹ s⁻¹,"anti-GPNMB antibody GPN-87 (antibody, V domains shown) VH: QVQLQESGPGLVKPSETLSLTCTVSGISITTGNYRWSWIRQPPGKGLEWIGYIDYSGTITYNPSLKSRVTITRDTSKNQFSLELSSVTAADTAVYYCARDLTHWYYDVWGQGTLVTVSS VL: DIVMTQSPDSLAVSLGERATINCKSSRSVDYYGIGFLNWYQQKPGQPPKLLIYATSKQGSGVPDRFSGSGSGTDFTLTISSLQAEDVAVYYCQQQKEVPPTFGGGTKVEIK"
–,–,–,3 nM,0.00053 s⁻¹,180000 M⁻¹ s⁻¹,3.6 nM,0.00052 s⁻¹,150000 M⁻¹ s⁻¹,"anti-GPNMB antibody GPN-91 (antibody, V domains shown) VH: QVQLQESGPGLVKPSETLSLTCTVSGISITTGNYRWSWIRQPPGKGLEWIGYIDYSGTITYNPSLKSRVTITRDTSKNQFSLELSSVTAADTAVYYCARDLTHWYFDVWGQGTLVTVSS VL: DIVMTQSPDSLAVSLGERATINCKSSRSVDYYGIGFLNWYQQKPGQPPKLLIYATSHQGSGVPDRFSGSGSGTDFTLTISSLQAEDVAVYYCQQQKERPPTFGGGTKVEIK"
0.97 nM,2.1 fold,4.22 fold,1 nM,0.00018 s⁻¹,170000 M⁻¹ s⁻¹,1.4 nM,0.00021 s⁻¹,150000 M⁻¹ s⁻¹,"anti-GPNMB antibody GPN-85 (antibody, V domains shown) VH: QVQLQESGPGLVKPSETLSLTCTVSGISITTGNYRWSWIRQPPGKGLEWIGYIDYSGTITYNPSLKQRVTITRDTSKNQFSLELSSVTAADTAVYYCARDLTHWYFDVWGQGTLVTVSS VL: DIVMTQSPDSLAVSLGERATINCKSSRSVDYFGIGFLNWYQQKPGQPPKLLIYATSHQGSGVPDRFSGSGSGTDFTLTISSLQAEDVAVYYCQQQKEVPPTFGGGTKVEIK"
